Data from US20040253685A1.

Assays:
[1] = target: T1, wild type bovine endothelial nitric oxide synthase (eNOS) (bovine) (UniProt P29473); experiment: cell-based or functional assay
T1 sequence (looked up): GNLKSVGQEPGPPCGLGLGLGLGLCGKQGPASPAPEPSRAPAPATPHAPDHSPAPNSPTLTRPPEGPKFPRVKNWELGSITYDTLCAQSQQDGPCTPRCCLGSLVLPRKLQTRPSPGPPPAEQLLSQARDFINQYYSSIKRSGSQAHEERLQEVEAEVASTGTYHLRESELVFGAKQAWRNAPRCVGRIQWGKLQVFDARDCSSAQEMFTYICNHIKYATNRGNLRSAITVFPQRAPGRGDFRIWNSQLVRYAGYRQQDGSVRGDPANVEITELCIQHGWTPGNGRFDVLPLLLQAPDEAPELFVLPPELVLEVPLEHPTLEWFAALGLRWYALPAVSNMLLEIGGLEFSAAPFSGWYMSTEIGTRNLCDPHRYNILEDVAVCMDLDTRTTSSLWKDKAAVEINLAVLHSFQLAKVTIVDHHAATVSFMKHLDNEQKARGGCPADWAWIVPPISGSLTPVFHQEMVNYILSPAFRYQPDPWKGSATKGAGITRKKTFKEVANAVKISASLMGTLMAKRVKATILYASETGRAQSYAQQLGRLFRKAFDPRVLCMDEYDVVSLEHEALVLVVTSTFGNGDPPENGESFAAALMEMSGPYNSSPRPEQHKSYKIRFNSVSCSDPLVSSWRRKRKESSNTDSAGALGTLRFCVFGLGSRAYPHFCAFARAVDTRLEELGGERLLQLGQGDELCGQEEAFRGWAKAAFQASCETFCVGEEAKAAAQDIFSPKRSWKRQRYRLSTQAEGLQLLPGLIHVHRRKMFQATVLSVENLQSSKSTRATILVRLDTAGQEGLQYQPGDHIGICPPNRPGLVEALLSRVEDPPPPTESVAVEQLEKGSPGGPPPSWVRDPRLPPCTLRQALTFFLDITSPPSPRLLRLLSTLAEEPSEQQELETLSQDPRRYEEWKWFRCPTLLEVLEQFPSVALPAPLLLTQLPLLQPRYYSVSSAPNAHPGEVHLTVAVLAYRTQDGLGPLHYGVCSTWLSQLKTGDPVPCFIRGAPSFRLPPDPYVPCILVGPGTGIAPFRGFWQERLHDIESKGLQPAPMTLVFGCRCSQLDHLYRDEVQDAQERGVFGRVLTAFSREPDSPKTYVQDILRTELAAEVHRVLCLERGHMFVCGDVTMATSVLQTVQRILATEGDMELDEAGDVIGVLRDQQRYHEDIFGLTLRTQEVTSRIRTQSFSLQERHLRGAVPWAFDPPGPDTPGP

[2] = target: S1179D eNOS (bovine) (bovine) (UniProt P29473); experiment: cell-based or functional assay

Substance: HA-tagged kinase inactive Akt (K179M) (enzyme)
- cGMP accumulation (assayed in COS cells) [1]: 5.8 pmol cGMP

Substance: HA-tagged wild-type Akt (protein kinase B) (enzyme)
- phosphorylation of eNOS in 32P-orthophosphate labeled COS cells [1]: 2 fold

Substance: calmodulin
- EC50 for CaM, NADPH-mediated cytochrome c reduction as a function of CaM concentration [2]: 21 nM
- EC50 for CaM, NOS activity (L-Citrulline) as a function of CaM concentration [2]: 7 nM
- EC50 for CaM, NADPH-mediated cytochrome c reduction as a function of CaM concentration [1]: 13 nM
- EC50 for CaM, NOS activity (L-Citrulline) as a function of CaM concentration [1]: 8 nM

Substance: constitutively active form of Akt (myr-Akt) (enzyme)
- cGMP accumulation (assayed in COS cells) (pmol cGMP/mg protein) [1]: 11.6
